These results are taken from publication PMC5087658, “Essential role of the Dishevelled DEP domain in a Wnt-dependent human-cell-based complementation assay” (Journal of Cell Science, 2016).

Residue numbers refer to the chain shown, from its start. Names may count otherwise. “And” between values parts separate entries of the source, which are not always exact repeats. Identical values can stand only once.

The target in one data set is SNAP–FZD5 (UniProt Q13467). In words: FZD5-dependent recruitment of DEP-GFP to the plasma membrane, cells scored by fluorescence microscopy. The settings on record: HEK293T cells, 100 cells scored in each case, read off a plot; for other: % of cells with no FZD5 recruitment: parent: est. 12; for other: % of cells with weak FZD5 recruitment: parent: est. 36; for other: % of cells with strong FZD5 recruitment: parent: est. 52.
SNAP–FZD5, sequence (Q13467 27-585): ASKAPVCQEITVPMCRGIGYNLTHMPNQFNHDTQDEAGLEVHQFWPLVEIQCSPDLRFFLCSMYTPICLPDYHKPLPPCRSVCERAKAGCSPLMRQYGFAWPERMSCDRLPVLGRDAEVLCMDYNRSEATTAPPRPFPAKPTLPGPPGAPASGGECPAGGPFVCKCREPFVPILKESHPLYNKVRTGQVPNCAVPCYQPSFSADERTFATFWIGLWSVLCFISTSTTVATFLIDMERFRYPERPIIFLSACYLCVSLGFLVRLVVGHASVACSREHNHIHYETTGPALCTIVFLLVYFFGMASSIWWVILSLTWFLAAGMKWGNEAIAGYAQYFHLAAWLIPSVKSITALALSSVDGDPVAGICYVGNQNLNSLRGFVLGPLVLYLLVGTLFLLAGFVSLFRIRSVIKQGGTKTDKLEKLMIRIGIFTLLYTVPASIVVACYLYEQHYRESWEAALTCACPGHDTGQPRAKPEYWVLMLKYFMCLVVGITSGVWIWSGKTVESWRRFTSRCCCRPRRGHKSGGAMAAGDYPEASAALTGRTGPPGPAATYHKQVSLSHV

Data set [1] concerns the molecule itself. In words: SEC-MALS; phosphate-buffered saline, GE Superdex S-200 10/300 analytical column; unfractionated purified Lip–DEP. In general terms: In gel filtration, larger molecules generally elute earlier.
Data set [2] concerns the molecule itself. In words: SEC-MALS; not shown; tetramerisation of the K446M DEP domain.
Data set [3] has as its target T1, DVL2 PDZ domain (PDZ_(265-361)), wt, 15N-labelled (human, UniProt O14641 265-361, 15N-labelled).
T1 construct: Dishevelled 2 (DVL2), human, PDZ domain, residues 265-361; Tag was followed by the linker ENLYFQS (TEV site); also called wt 15N-PDZ; minimal PDZ domain of DVL2; source: E. coli BL21-CodonPlus(DE3)-RIL, purified (NiNTA), Lip tag cleaved with TEV protease; not shown: His6, N-terminal, cleaved; Lip, N-terminal, cleaved
T1 sequence (looked up): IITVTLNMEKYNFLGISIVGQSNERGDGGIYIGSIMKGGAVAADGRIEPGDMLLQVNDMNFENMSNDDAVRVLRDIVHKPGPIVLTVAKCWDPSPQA
Kind of data set: NMR titration; 1H-15N correlation spectra (fast-HSQC or BEST-TROSY) of 100 µM 15N-PDZ alone or with 3x molar excess (300 µM) of DVL-C or Lip–FZD peptide; 298 K, aqueous phosphate buffer at physiological ionic strength, pH 6.7. The conditions noted are these: both partners purified.

As for “DEP–GFP, wt (minimal DEP domain of DVL2) (from UniProt O14641) I447F”, in the data set with SNAP–FZD5, the other: % of cells with no FZD5 recruitment is 8 % of cells, the other: % of cells with weak FZD5 recruitment is 34 % of cells and the other: % of cells with strong FZD5 recruitment is 58 % of cells.
In the case of “DEP–GFP, wt (minimal DEP domain of DVL2) (from UniProt O14641) I447T”, in the data set with SNAP–FZD5, the other: % of cells with no FZD5 recruitment is 7 % of cells, the other: % of cells with weak FZD5 recruitment is 32 % of cells and the other: % of cells with strong FZD5 recruitment was 61 % of cells.
For “DEP–GFP, wt (minimal DEP domain of DVL2) (from UniProt O14641) L445E”, in the data set with SNAP–FZD5, the other: % of cells with no FZD5 recruitment was 80 % of cells and the other: % of cells with weak FZD5 recruitment is 20 % of cells.
For “DEP–GFP, wt (minimal DEP domain of DVL2) (from UniProt O14641) I447M”, in the data set with SNAP–FZD5, the other: % of cells with no FZD5 recruitment was 7 % of cells, the other: % of cells with weak FZD5 recruitment is 41 % of cells and the other: % of cells with strong FZD5 recruitment was 52 % of cells.
Taken in the same sequence, the figures for “DEP–GFP, wt (minimal DEP domain of DVL2) (from UniProt O14641) K446M” were 75 % of cells, 22 % of cells and 3 % of cells.

B1: Lip–DEP_(417-511), DVL2 DEP domain, wt (domain or fragment, human, UniProt O14641 417-511, looked up)
chain: LSVHTDMASVTKAMAAPESGLEVRDRMWLKITIPNAFLGSDVVDWLYHHVEGFPERREARKYASGLLKAGLIRHTVNKITFSEQCYYVFGDLSGG
notes: Dishevelled 2 (DVL2), human, DEP domain, residues 417-511; Between the 6xHis-Lip tag and the domain stands the linker ENLYFQS (TEV site); also called wt DEP domain; DVL2 DEP_(417-511); source: E. coli BL21-CodonPlus(DE3)-RIL, purified (NiNTA); not shown: Lip, N-terminal, kept
The term stoichiometry N denotes the number of molecules, sites or subunits per partner or assembly. Regarding B1, the “stoichiometry N” value in data set [1] was 2 and 4.

B2: Lip–DEP_(417-511) I447M (domain or fragment, human, UniProt O14641 417-511, looked up)
chain: B1 chain with I31M
notes: Dishevelled 2 (DVL2), human, DEP domain, residues 417-511, with I447M; also called tetramerisation mutant; source: E. coli BL21-CodonPlus(DE3)-RIL, purified (NiNTA)
B2: the “stoichiometry N” value in data set [1] is 2.

B3: Lip–DEP_(417-511) I447F (domain or fragment, human, UniProt O14641 417-511, looked up)
chain: B1 chain with I31F
notes: Dishevelled 2 (DVL2), human, DEP domain, residues 417-511, with I447F; also called tetramerisation mutant; source: E. coli BL21-CodonPlus(DE3)-RIL, purified (NiNTA)
For B3, the “stoichiometry N” value in data set [1] came out at 2.

B4: Lip–DEP_(417-511) K446M (domain or fragment, human, UniProt O14641 417-511, looked up)
chain: B1 chain with K30M
notes: Dishevelled 2 (DVL2), human, DEP domain, residues 417-511, with K446M; source: E. coli BL21-CodonPlus(DE3)-RIL, purified (NiNTA)
As for B4, the “stoichiometry N” value in data set [2] was 4.

B5: Lip–DEP_(417-511) I447T (domain or fragment, human, UniProt O14641 417-511, looked up)
chain: B1 chain with I31T
notes: Dishevelled 2 (DVL2), human, DEP domain, residues 417-511, with I447T; also called tetramerisation mutant; source: E. coli BL21-CodonPlus(DE3)-RIL, purified (NiNTA)
B5: the “stoichiometry N” value in data set [1] is 2.

B6: C-terminal peptide from Dvl1 (DVL-C) (peptide)
peptide: SEFFVDVM
notes: C-terminal peptide of Dishevelled 1 (Dvl1); Lee et al., 2015; also called DVL-C peptide; source: kindly provided by Jie Zheng (University of California, Los Angeles)
In the case of B6, in data set [3], the binding result was “binds”.
